Laboratory results as given in US20240209099A1.
Read-outs that look alike come from different tables or passages of the source.

How the values were obtained:
[1] = molecular target: Recombinant Rhesus macaque VEGFR2/KDR Protein, His tag (rhesus macaque); experiment: ELISA, rhesus VEGFR2-his coated, anti-human Fc-HRP
[2] = molecular target: Recombinant Human VEGFR2/KDR Protein, His tag (hVEGFR2-his) (human) (UniProt P35968); experiment: ELISA, human VEGFR2-his coated, anti-human Fc-HRP
[3] = molecular target: Recombinant Rhesus macaque VEGFR2/KDR Protein, His tag (rhesus macaque); experiment: ELISA, rhesus VEGFR2-his coated, anti-human Fc-HRP; remark: listed apart in the source
[4] = molecular target: Recombinant Human VEGFR2/KDR Protein, His tag (hVEGFR2-his) (human) (UniProt P35968); experiment: ELISA, hVEGFR2-his coated (0.5 ug/ml), anti-human Fc-HRP
[5] = molecular target: human VEGFR2 on HUVEC cells (human) (UniProt P35968); experiment: flow cytometry on HUVEC cells, MFI, anti-human IgG (H+L)-PE
[6] = molecular target: human VEGFR2 on HUVEC cells (human) (UniProt P35968); experiment: flow cytometry on HUVEC cells, percent shifted cells (Shift %), anti-human IgG-PE
[7] = molecular target: Recombinant Human VEGFR2/KDR Protein, His tag (hVEGFR2-his) (human) (UniProt P35968); experiment: competition ELISA: hVEGFR2-his coated (1 ug/ml), antibody titrated, then 0.3 ug/ml hVEGF-A added and bound VEGF-A detected; blocked ligand hVEGF-A
[8] = molecular target: Recombinant Human VEGFR2/KDR Protein, His tag (hVEGFR2-his) (human) (UniProt P35968); experiment: competition ELISA: VEGF-A coated (0.25 ug/ml), antibody mixed with VEGFR2, detection with mouse anti-VEGFR2 serum and anti-mouse Fc-HRP; blocked ligand VEGF-A
[9] = molecular target: Recombinant Human VEGFR2/KDR Protein, His tag (hVEGFR2-his) (human) (UniProt P35968); experiment: competition ELISA: VEGF-A coated (0.25 ug/ml), antibody titrated together with 1 ug/ml human VEGFR2, detection with mouse anti-VEGFR2 serum and anti-mouse Fc-HRP; blocked ligand VEGF-A
[10] = molecular target: Recombinant Rhesus macaque VEGFR2/KDR Protein, His tag (rhesus macaque); experiment: competition ELISA: VEGF-A coated (0.25 ug/ml), antibody titrated together with 1 ug/ml rhesus VEGFR2, detection with mouse anti-VEGFR2 serum and anti-mouse Fc-HRP; blocked ligand VEGF-A

Sequence of Recombinant Rhesus macaque VEGFR2/KDR Protein, His tag (rhesus macaque) (chain, as listed by the source): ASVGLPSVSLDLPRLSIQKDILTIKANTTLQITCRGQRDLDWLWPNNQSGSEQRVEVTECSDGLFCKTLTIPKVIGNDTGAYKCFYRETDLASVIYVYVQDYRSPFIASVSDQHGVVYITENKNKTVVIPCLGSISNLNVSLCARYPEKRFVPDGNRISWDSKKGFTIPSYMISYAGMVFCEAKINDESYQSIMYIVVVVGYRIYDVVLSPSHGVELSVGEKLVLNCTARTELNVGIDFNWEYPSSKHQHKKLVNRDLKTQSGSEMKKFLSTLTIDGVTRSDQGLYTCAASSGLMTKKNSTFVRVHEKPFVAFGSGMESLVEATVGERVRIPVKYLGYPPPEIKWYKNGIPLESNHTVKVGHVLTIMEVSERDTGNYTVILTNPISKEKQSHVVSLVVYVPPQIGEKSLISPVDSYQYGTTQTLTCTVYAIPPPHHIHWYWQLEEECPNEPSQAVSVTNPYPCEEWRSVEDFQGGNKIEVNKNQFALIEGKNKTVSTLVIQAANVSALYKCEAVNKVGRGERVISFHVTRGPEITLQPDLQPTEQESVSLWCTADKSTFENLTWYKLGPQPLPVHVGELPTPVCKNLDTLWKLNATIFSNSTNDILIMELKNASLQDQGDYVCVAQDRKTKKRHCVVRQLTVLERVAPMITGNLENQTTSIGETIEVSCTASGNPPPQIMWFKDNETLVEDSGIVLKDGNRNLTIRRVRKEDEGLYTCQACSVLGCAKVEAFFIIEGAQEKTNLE
Sequence of Recombinant Human VEGFR2/KDR Protein, His tag (hVEGFR2-his) (human) (P35968 other isoform, or with tags, fused parts or gaps): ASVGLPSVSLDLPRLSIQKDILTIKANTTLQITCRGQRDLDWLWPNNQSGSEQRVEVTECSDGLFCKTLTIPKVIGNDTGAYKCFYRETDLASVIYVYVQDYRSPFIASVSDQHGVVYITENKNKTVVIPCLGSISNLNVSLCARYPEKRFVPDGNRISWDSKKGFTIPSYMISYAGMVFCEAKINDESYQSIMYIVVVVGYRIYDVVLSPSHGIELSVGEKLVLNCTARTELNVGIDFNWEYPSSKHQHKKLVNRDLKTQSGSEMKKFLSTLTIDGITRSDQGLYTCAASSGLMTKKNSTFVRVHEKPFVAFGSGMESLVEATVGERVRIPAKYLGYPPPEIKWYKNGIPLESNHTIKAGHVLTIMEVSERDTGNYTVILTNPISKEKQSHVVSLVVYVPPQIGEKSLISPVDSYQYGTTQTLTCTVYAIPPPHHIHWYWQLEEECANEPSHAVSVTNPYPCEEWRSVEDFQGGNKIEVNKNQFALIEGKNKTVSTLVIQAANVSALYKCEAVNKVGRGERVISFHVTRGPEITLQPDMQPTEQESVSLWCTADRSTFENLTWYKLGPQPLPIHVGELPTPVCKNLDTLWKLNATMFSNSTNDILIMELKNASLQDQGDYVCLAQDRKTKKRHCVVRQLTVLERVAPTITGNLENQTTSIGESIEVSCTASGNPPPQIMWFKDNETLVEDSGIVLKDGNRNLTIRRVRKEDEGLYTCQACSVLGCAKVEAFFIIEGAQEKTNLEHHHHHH
Sequence of human VEGFR2 on HUVEC cells (human) (P35968 20-1356 V297I/Q472H limits assumed): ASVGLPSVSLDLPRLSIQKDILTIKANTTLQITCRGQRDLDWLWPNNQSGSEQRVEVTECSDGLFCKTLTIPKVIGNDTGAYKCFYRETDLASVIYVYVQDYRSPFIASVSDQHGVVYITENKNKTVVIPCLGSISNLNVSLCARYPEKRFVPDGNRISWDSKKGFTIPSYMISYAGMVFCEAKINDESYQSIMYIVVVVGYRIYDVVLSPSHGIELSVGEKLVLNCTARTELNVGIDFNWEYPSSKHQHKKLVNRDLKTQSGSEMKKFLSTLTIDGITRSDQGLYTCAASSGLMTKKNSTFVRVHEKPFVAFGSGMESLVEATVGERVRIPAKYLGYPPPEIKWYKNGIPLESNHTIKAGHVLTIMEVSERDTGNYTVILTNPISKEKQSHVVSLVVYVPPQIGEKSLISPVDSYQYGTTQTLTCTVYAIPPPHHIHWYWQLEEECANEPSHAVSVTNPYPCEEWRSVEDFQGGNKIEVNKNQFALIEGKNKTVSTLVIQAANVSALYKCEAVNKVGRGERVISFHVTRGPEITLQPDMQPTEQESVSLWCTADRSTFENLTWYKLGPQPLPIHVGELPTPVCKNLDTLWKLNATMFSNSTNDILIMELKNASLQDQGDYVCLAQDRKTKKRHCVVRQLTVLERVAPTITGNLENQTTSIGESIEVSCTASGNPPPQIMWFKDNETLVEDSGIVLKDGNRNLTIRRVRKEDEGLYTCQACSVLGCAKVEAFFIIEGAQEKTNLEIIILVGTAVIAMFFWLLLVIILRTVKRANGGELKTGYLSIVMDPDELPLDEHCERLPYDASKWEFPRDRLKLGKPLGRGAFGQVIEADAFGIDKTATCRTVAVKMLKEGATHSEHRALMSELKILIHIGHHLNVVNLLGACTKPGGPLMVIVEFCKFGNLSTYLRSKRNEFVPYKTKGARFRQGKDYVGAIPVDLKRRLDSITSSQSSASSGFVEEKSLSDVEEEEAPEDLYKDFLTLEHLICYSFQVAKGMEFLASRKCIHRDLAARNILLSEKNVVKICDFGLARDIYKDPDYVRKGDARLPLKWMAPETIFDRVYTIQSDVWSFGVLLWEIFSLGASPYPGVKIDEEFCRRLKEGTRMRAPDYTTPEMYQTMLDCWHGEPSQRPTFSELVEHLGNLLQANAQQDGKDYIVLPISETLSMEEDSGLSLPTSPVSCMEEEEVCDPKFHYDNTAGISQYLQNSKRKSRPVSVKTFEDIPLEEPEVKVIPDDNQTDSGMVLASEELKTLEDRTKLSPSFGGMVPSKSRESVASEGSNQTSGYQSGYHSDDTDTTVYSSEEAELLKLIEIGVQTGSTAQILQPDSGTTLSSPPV

1121B (benchmark antibody, Ramucirumab)
EC50 [1]: 0.0088 µg/mL | EC50 [2]: 0.00871 µg/mL | EC50 [3]: 0.00919 µg/mL | EC50 [4]: 0.00926 µg/mL | EC50 (read off the curve) [5]: 0.1 µg/mL | EC50 [6]: 0.0682 µg/mL | IC50 [7]: 0.0285 µg/mL | IC50 [8]: 0.126 µg/mL | IC50 [9]: 0.849 µg/mL | IC50 [10]: 0.805 µg/mL
